# Reference: the Immune Epitope Database (IEDB)
# Assays:
# HLA-A*02:17 = assay: IEDB peptide-MHC binding, purified MHC/competitive/radioactivity; filed as Kd, often an IC50 or EC50 that approximates it; ≥ and ≤ were set here for values at or beyond the usual limits of such assays
# HLA-A*02:06 = assay: as above
# HLA-A*02:03 = assay: as above
# HLA-A*02:01 [1] = assay: as above
# HLA-A*01:01 = assay: IEDB peptide-MHC binding, purified MHC/direct/fluorescence; filed as Kd, often an IC50 or EC50 that approximates it; ≥ and ≤ were set here for values at or beyond the usual limits of such assays
# HLA-B*44:02 = assay: as above; details: source organism: Vibrio parahaemolyticus
# HLA-A*26:01 = assay: as above; details: source organism: Vibrio parahaemolyticus
# HLA-B*35:01 = assay: as above; details: source organism: Vibrio vulnificus
# HLA-B*27:05 = assay: as above; details: source organism: Vibrio parahaemolyticus
# HLA-B*08:01 = assay: as above; details: source organism: Vibrio parahaemolyticus
# HLA-A*69:01 = assay: as above; details: source organism: Vibrio parahaemolyticus
# HLA-A*11:01 = assay: as above
# HLA-B*07:02 = assay: as above; details: source organism: Vibrio parahaemolyticus
# HLA-A*31:01 [2] = assay: as above; details: source organism: Vibrio parahaemolyticus
# HLA-A*02:01 [3] = assay: as above; details: source organism: Vibrio parahaemolyticus
# HLA-A*03:01 [4] = assay: as above; details: source organism: Vibrio parahaemolyticus
# HLA-A*31:01 [5] = assay: IEDB peptide-MHC binding, purified MHC/competitive/fluorescence; filed as Kd, often an IC50 or EC50 that approximates it; ≥ and ≤ were set here for values at or beyond the usual limits of such assays
# HLA-A*03:01 [6] = assay: as above
# HLA-A*68:02 = assay: IEDB peptide-MHC binding, purified MHC/competitive/radioactivity; filed as Kd, often an IC50 or EC50 that approximates it; ≥ and ≤ were set here for values at or beyond the usual limits of such assays; details: source organism: Dengue virus 2 Jamaica/1409/1983
# HLA-A*80:01 = assay: IEDB peptide-MHC binding, purified MHC/direct/fluorescence; filed as Kd, often an IC50 or EC50 that approximates it; ≥ and ≤ were set here for values at or beyond the usual limits of such assays; details: source organism: Yersinia pestis
# [7] = source organism: Dengue virus 1 Singapore/S275/1990
# [8] = source organism: Dengue virus 1 Brazil/97-11/1997
# [9] = source organism: Vibrio parahaemolyticus
# [10] = source organism: Bacillus anthracis str. A2012
# [11] = source organism: Dengue virus 2 Jamaica/1409/1983
# [12] = source organism: Shigella sonnei Ss046
# [13] = source organism: Dengue virus 3 China/80-2/1980
sequence,measurement,setting,value
KILNPYMPSV,Kd,HLA-A*02:17; [7],7.71 nM
same,Kd,HLA-A*02:06; [8],5.14 nM
same,Kd,HLA-A*02:03; [8],48.5 nM
same,Kd,HLA-A*02:01 [1]; [7],4.81 nM
AFDWPELEF,Kd,HLA-A*01:01; [9],≥ 20000 nM
same,Kd,HLA-B*44:02,≥ 20000 nM
same,Kd,HLA-A*26:01,≥ 20000 nM
same,Kd,HLA-B*35:01,77.2 nM
same,Kd,HLA-B*27:05,≥ 20000 nM
same,Kd,HLA-B*08:01,≥ 20000 nM
same,Kd,HLA-A*69:01,≥ 20000 nM
same,Kd,HLA-A*11:01; [9],≥ 20000 nM
same,Kd,HLA-B*07:02,≥ 20000 nM
same,Kd,HLA-A*31:01 [2],≥ 20000 nM
same,Kd,HLA-A*02:01 [3],≥ 20000 nM
same,Kd,HLA-A*03:01 [4],≥ 20000 nM
LLLSFTSFR,Kd,HLA-A*31:01 [5]; [10],2.6 nM
same,Kd,HLA-A*03:01 [6]; [10],22.9 nM
YVVIAILTV,Kd,HLA-A*02:17; [11],509 nM
same,Kd,HLA-A*02:06; [11],12.4 nM
same,Kd,HLA-A*02:01 [1]; [11],254 nM
same,Kd,HLA-A*68:02,26.3 nM
TMTDDIGMGV,Kd,HLA-A*02:17; [11],313 nM
same,Kd,HLA-A*02:06; [11],5.64 nM
same,Kd,HLA-A*02:03; [11],7.59 nM
same,Kd,HLA-A*02:01 [1]; [11],21.3 nM
same,Kd,HLA-A*68:02,116 nM
MQLSRLTLR,Kd,HLA-A*31:01 [5]; [12],6.1 nM
same,Kd,HLA-A*03:01 [6]; [12],3500 nM
DLRPYGLIK,Kd,HLA-A*01:01; source organism: Yersinia pestis,≥ 20000 nM
same,Kd,HLA-A*80:01,≥ 20000 nM
AVFEIFFRK,Kd,HLA-A*31:01 [5]; source organism: Mycobacterium tuberculosis variant bovis BCG str. Pasteur 1173P2,61.7 nM
same,Kd,HLA-A*11:01; source organism: Mycobacterium tuberculosis,12.6 nM
ALFSGVSWIM,Kd,HLA-A*02:17; [13],202 nM
same,Kd,HLA-A*02:01 [1]; [13],6.61 nM
